# Where two headings read alike, the source gives them in different places.
# B1: C5S2.2 (antibody, V domains shown)
# VH: EVQLVESGGGLVQAGGSLRLSCAASGNIFHQSDMGWYRQAPGKEREFVAAIDYGTNTYYADSVKGRFTISRDNSKNTLYLQMNSLRPEDTAVYYCAARDTSYWDHVYWGQGTLVTVSS
# B2: C5S2.2-Fc (antibody, V domains shown)
# VH: B1 VH
# B3: C3S7 (antibody, V domains shown)
# VH: QVQLQESGGGLVQAGGSLRLSCAASGYIFTGVDMGWYRQAPGKEREFVAAISYGASTYYADSVKGRFTISRDNAKNTVYLQMNSLKPEDTAVYYCAASLSNTYLLDLFFRYWGQGTQVTVSS
# Columns and labels:
# human C3 [1] = molecular target: T1, human C3 (human, UniProt P01024); experiment: BLI
# human C5 W917S = human C5 W917S (human, UniProt P01031); experiment: BLI
# human C5 [2] = molecular target: T2, human C5 (human, UniProt P01031); experiment: BLI
# cynomolgus C5 = molecular target: T3, cynomolgus C5 (cynomolgus); experiment: BLI
# T3 chain: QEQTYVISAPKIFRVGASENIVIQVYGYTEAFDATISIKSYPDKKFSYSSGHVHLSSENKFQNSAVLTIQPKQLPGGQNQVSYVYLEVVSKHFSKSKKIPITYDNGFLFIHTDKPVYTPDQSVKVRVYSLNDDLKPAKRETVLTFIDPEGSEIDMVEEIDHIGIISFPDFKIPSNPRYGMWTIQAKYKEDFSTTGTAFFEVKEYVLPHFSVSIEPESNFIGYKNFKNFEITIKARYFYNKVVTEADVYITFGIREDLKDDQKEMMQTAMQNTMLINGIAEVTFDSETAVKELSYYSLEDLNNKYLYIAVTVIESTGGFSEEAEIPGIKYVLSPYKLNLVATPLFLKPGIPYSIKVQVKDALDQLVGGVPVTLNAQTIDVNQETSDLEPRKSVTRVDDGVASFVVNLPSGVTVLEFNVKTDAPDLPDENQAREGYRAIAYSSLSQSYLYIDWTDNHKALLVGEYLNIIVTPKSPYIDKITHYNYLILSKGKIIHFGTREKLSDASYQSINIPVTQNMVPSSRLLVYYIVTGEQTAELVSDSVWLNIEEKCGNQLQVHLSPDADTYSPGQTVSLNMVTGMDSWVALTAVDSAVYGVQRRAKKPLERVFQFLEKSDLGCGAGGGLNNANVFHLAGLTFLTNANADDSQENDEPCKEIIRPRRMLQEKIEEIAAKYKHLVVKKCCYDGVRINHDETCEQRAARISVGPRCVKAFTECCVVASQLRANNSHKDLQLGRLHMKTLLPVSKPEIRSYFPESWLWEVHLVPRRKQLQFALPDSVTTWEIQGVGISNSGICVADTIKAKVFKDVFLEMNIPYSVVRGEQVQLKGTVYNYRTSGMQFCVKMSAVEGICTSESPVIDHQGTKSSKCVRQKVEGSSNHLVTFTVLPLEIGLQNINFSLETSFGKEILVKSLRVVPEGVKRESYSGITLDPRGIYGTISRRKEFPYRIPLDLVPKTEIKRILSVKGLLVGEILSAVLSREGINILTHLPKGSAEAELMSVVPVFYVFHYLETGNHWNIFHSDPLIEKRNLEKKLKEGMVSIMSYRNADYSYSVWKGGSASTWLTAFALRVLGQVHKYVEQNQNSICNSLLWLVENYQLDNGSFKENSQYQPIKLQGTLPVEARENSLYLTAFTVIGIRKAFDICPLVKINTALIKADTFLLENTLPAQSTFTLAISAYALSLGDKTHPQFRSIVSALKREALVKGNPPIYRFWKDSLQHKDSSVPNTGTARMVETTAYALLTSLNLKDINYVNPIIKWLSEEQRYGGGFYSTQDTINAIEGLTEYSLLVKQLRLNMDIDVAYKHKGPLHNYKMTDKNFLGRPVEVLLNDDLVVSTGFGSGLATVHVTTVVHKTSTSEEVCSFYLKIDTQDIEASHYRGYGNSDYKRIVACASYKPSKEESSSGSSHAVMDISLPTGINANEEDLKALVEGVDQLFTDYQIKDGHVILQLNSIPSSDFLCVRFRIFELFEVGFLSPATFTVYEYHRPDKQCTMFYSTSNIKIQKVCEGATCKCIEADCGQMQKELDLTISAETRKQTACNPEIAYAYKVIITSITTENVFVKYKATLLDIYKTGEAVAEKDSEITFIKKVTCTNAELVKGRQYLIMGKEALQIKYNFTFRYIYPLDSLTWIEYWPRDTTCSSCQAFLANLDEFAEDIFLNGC
# human C5 [3] = molecular target: T2, human C5; experiment: BLI; remark: listed apart in the source
# human C5 R885H = human C5 R885H (human, UniProt P01031); experiment: BLI
# human C5 [4] = molecular target: T2, human C5; experiment: BLI, bivalent
# human C3 [5] = molecular target: T1, human C3; experiment: BLI; remark: listed apart in the source
binder,measurement,setting,value
B1,binding result,human C3 [1],no binding
same,binding result,human C5 W917S,no binding
same,Kd,human C5 [2],12 nM
same,binding result,cynomolgus C5,no binding
same,Kd,human C5 [3],12 nM
same,binding result,human C5 R885H,no binding
B2,Kd,human C5 [4],0.654 nM
B3,binding result,human C3 [5],no binding
